The experiment concerns the target T1, fibroin sheet (Bombyx mori, UniProt P05790).
T1 construct: purchased Sigma-Aldrich
The experiment can be described thus: Color intensity of modified fibroin sheet after glucose/HRP/4-aminoantipyrine chromogenic reaction. In kind it is biochemical. Conditions: fibroin sheet adsorbed from 0.3 mg/mL solution, 10 mM glucose, 1000 U/mL HRP, 5 minutes, ImageJ, average of five sheets. Here is the method: After methanol was added to the collected sheet, methanol was removed and dried overnight. The measurement of the weight of the fibroin sheet cut into 20 mm×40 mm size confirmed that it was 1.25 μg/mm^2 fibroin sheet. Fibroin sheets of 5 mm×5 mm size were cut and added to an aqueous solution of 0.3 mg/mL Compound 1 (0.2 mL) and allowed to stand for 10 minutes. Fibroin sheets were immersed in PBS buffer (1 mL, pH7.4) containing 0.05 wt % Tween20 for 15 minutes×2 and in PBS (1 mL, pH7.4) for 1 minute. The modified fibroin sheet was obtained by drying at room temperature.
A fibroin sheet adsorbed with Compound 6 was prepared in the same manner as Manufacturing Example 2 except that 0.3 mg/mL Compound 6 aqueous solution was used instead of the aqueous solution of Compound 1.
1.5 μL of phosphate buffered saline (pH7.4) containing 10 mM glucose, 1000 U/mL HRP, 3.7 mM 4-aminoantipyrine, 6.4 mM sodium 3-[ethyl(m-tolyl) amino]-2 hydroxy-1 propanesulfonate was added dropwise to a fibroin sheet modified with Compound 6 obtained in Manufacturing Example 12 and allowed to stand in a wet box for 5 minutes. […] After drying the sheet, the sheet was read by a scanner to obtain image data. […] Five sheets were prepared and subjected to the same evaluation, and the average value of color intensity (Color Intensity, hereinafter CI value) was calculated. The calculated CI value was 54.5.

B1: Compound 6: Thioflavin T acid bound to glucose oxidase (GOx); 5.6 molecules per GOx molecule (conjugate, UniProt P13006 17-605, looked up)
Glucose oxidase: LPHYIRSNGIEASLLTDPKDVSGRTVDYIIAGGGLTGLTTAARLTENPNISVLVIESGSYESDRGPIIEDLNAYGDIFGSSVDHAYETVELATNNQTALIRSGNGLGGSTLVNGGTWTRPHKAQVDSWETVFGNEGWNWDNVAAYSLQAERARAPNAKQIAAGHYFNASCHGVNGTVHAGPRDTGDDYSPIVKALMSAVEDRGVPTKKDFGCGDPHGVSMFPNTLHEDQVRSDAAREWLLPNYQRPNLQVLTGQYVGKVLLSQNGTTPRAVGVEFGTHKGNTHNVYAKHEVLLAAGSAVSPTILEYSGIGMKSILEPLGIDTVVDLPVGLNLQDQTTATVRSRITSAGAGQGQAAWFATFNETFGDYSEKAHELLNTKLEQWAEEAVARGGFHNTTALLIQYENYRDWIVNHNVAYSELFLDTAGVASFDVWDLLPFTRGYVHILDKDPYLHHFAYDPQYFLNELDLLGQAAATQLARNISNSGAMQTYFAGETIPGDNLAYDADLSAWTEYIPYHFRPNYHGVGTCSMMPKEMGGVVDNAARVYGVQGLRVIDGSIPPTQMSSHVMTVFYAMALKISDAILEDYASMQ
modifications: Thioflavin T acid conjugated, 5.6 per GOx
notes: 5.6 molecules per GOx molecule
In the case of B1, the “CI value (average color intensity)” value was determined as 54.5.

B2: GOx: glucose oxidase (manufactured by Sigma-Aldrich, G2133), unmodified comparison (protein, UniProt P13006 17-605, looked up)
Glucose oxidase: LPHYIRSNGIEASLLTDPKDVSGRTVDYIIAGGGLTGLTTAARLTENPNISVLVIESGSYESDRGPIIEDLNAYGDIFGSSVDHAYETVELATNNQTALIRSGNGLGGSTLVNGGTWTRPHKAQVDSWETVFGNEGWNWDNVAAYSLQAERARAPNAKQIAAGHYFNASCHGVNGTVHAGPRDTGDDYSPIVKALMSAVEDRGVPTKKDFGCGDPHGVSMFPNTLHEDQVRSDAAREWLLPNYQRPNLQVLTGQYVGKVLLSQNGTTPRAVGVEFGTHKGNTHNVYAKHEVLLAAGSAVSPTILEYSGIGMKSILEPLGIDTVVDLPVGLNLQDQTTATVRSRITSAGAGQGQAAWFATFNETFGDYSEKAHELLNTKLEQWAEEAVARGGFHNTTALLIQYENYRDWIVNHNVAYSELFLDTAGVASFDVWDLLPFTRGYVHILDKDPYLHHFAYDPQYFLNELDLLGQAAATQLARNISNSGAMQTYFAGETIPGDNLAYDADLSAWTEYIPYHFRPNYHGVGTCSMMPKEMGGVVDNAARVYGVQGLRVIDGSIPPTQMSSHVMTVFYAMALKISDAILEDYASMQ
For the molecule B2, the “CI value (average color intensity)” value worked out at 30.8.
